Laboratory results reported in patent US20110038881A1, “PROGNOSTIC ASSAY FOR DETERMINING T CELL RESPONSE TO HLA ANTIGENS AND USE THEREOF IN FIELD OF TISSUE TRANSPLANTATION” (priority 2007, published 2011).

T1: HLA-DRB1*1301 (human)
T1 chain 1: not shown
T1 chain 2: not shown

B1: p39 (peptide)
chain: HAVSDHEATLRCWAL
B2: p25 (peptide)
chain: KDYIALKEDLRSWTA
B3: p40 (peptide)
chain: RCWALSFYPAEITLT
B4: p8* (peptide)
chain: VRFDSDAASQRMEPR
B5: p50* (peptide)
chain: KPLTLRWEPSSQPTI
B6: p14* (peptide)
chain: VDLGTLRGYYNQSEA
B7: p15* (peptide)
chain: GTLRGYYNQSEAGSH
B8: p3 (peptide)
chain: TSVSRPGRGEPRFIA
B9: p11 (peptide)
chain: PEYWDGETRKVKAHS
B10: p1* (peptide)
chain: HSMRYFFTSVSRPGR
B11: p10 (peptide)
chain: APWIEQEGPEYWDGE
B12: p6 (peptide)
chain: VGYVDDTQFVRFDSD
B13: p42 (peptide)
chain: AEITLTWQRDGEDQT
B14: p9 (peptide)
chain: SQRMEPRAPWIEQEGP
B15: reference peptide B1 21-36 (peptide)
peptide: TERVRLVTRHIYNREE
modifications: not checked

What follows are binders tested against HLA-DRB4*0101 (human) (assay: competition). Settings: modification not given.

Row | Binder | IC50 [µM]
1 | B1 | 0.008

What follows are binders tested against HLA-DRB1*0101 (human) (assay: competition binding). Settings: modification not given.

Row | Binder | IC50 [µM]
2 | B2 | 0.01
3 | B3 | 0.026
4 | B4 | 14
5 | B5 | 0.458
6 | B6 | 0.209
7 | B7 | 0.406
8 | B8 | 0.648
9 | B9 | 4.95
10 | B10 | 0.003
11 | B11 | 13
12 | B12 | 27.7
13 | B13 | 1.34
14 | B14 | 10.8

The binders below were run against HLA-DRB1*0301 (human) (assay: competition binding). Settings: modification not given.

Row | Binder | IC50 [µM]
15 | B2 | 1.63
16 | B3 | 5.23
17 | B4 | 1.4
18 | B5 | > 100
19 | B6 | > 100
20 | B7 | > 100
21 | B8 | > 100
22 | B9 | > 100
23 | B10 | 7.35
24 | B11 | 49.7
25 | B12 | 0.6
26 | B13 | > 100
27 | B14 | > 100

Each binder was assayed against HLA-DRB1*0401 (human) (assay: competition binding). Settings: modification not given.

Row | Binder | IC50 [µM]
28 | B2 | 0.325
29 | B3 | 2
30 | B4 | 3.39
31 | B5 | 0.134
32 | B6 | 8.83
33 | B7 | 1.82
34 | B8 | 5.48
35 | B9 | 63.2
36 | B10 | 0.013
37 | B11 | > 100
38 | B12 | 97.5
39 | B13 | > 100
40 | B14 | > 100

Each binder was assayed against HLA-DRB1*0701 (human) (assay: competition binding). Settings: modification not given.

Row | Binder | IC50 [µM]
41 | B2 | 2.96
42 | B3 | 0.045
43 | B4 | 4.65
44 | B5 | 0.097
45 | B6 | > 100
46 | B7 | 2.96
47 | B8 | 6.93
48 | B9 | 62.9
49 | B10 | 0.038
50 | B11 | 79.4
51 | B12 | 3.16
52 | B13 | > 100
53 | B14 | 83.7

These binders were tested against HLA-DRB1*1101 (human) (assay: competition binding). Settings: modification not given.

Row | Binder | IC50 [µM]
54 | B2 | 0.042
55 | B3 | 40.6
56 | B4 | 58.3
57 | B5 | 11.4
58 | B6 | 1.55
59 | B7 | 1.86
60 | B8 | 1.02
61 | B9 | 0.418
62 | B10 | 0.002
63 | B11 | 58.1
64 | B12 | 2.8
65 | B13 | 6
66 | B14 | 15.5

These binders were tested against HLA-DRB1*1301 (human) (assay: competition binding). Settings: modification not given.

Row | Binder | IC50 [µM]
67 | B2 | 2.74
68 | B3 | > 100
69 | B4 | > 100
70 | B5 | > 100
71 | B6 | > 100
72 | B7 | > 100
73 | B8 | > 100
74 | B9 | > 100
75 | B10 | 0.365
76 | B11 | > 100
77 | B12 | > 100
78 | B13 | > 100
79 | B14 | 60

Each binder was assayed against HLA-DRB1*1501 (human) (assay: competition binding). Settings: modification not given.

Row | Binder | IC50 [µM]
80 | B2 | 0.125
81 | B3 | 0.028
82 | B4 | > 100
83 | B5 | 5.61
84 | B6 | 0.082
85 | B7 | 0.033
86 | B8 | 18.7
87 | B9 | > 100
88 | B10 | 0.509
89 | B11 | 51.2
90 | B12 | 1.78
91 | B13 | 18.8
92 | B14 | 33.2

Each binder was assayed against HLA-DRB3*0101 (human) (assay: competition binding). Settings: modification not given.

Row | Binder | IC50 [µM]
93 | B2 | 85.5
94 | B3 | 3.97
95 | B4 | 2.68
96 | B5 | 3.55
97 | B6 | > 100
98 | B7 | > 100
99 | B8 | > 100
100 | B9 | > 100
101 | B10 | > 100
102 | B11 | 75
103 | B12 | 0.245
104 | B13 | 30
105 | B14 | > 100

These binders were tested against HLA-DRB4*0101 (human) (assay: competition binding). Settings: modification not given.

Row | Binder | IC50 [µM]
106 | B2 | 27.4
107 | B3 | 4.52
108 | B4 | > 100
109 | B5 | 4.58
110 | B6 | > 100
111 | B7 | > 100
112 | B8 | > 100
113 | B9 | > 100
114 | B10 | 0.193
115 | B11 | > 100
116 | B12 | 9
117 | B13 | 4.58
118 | B14 | > 100

What follows are binders tested against HLA-DRB5*0101 (human) (assay: competition binding). Settings: modification not given.

Row | Binder | IC50 [µM]
119 | B2 | 0.052
120 | B3 | 0.812
121 | B4 | 3.58
122 | B5 | 45.8
123 | B6 | 11
124 | B7 | 0.612
125 | B8 | > 100
126 | B9 | 24.4
127 | B10 | 0.004
128 | B11 | 73.5
129 | B12 | 9.19
130 | B13 | 4.69
131 | B14 | 67.1

Target: T1, HLA-DRB1*1301 (human)
Assay: competition assay on purified, immobilised HLA-DR against the biotinylated reference peptide, pH 4.5
Settings: not given

Row | Binder | IC50 [µM]
132 | B15 | 0.131
